Data published in IntAct's records for PubMed 25609649.

B1: F-box/WD repeat-containing protein 11 (Homo sapiens), Q9UKB1 (parent)
chain: MEPDSVIEDKTIELMCSVPRSLWLGCANLVESMCALSCLQSMPSVRCLQISNGTSSVIVSRKRPSEGNYQKEKDLCIKYFDQWSESDQVEFVEHLISRMCHYQHGHINSYLKPMLQRDFITALPEQGLDHIAENILSYLDARSLCAAELVCKEWQRVISEGMLWKKLIERMVRTDPLWKGLSERRGWDQYLFKNRPTDGPPNSFYRSLYPKIIQDIETIESNWRCGRHNLQRIQCRSENSKGVYCLQYDDEKIISGLRDNSIKIWDKTSLECLKVLTGHTGSVLCLQYDERVIVTGSSDSTVRVWDVNTGEVLNTLIHHNEAVLHLRFSNGLMVTCSKDRSIAVWDMASATDITLRRVLVGHRAAVNVVDFDDKYIVSASGDRTIKVWSTSTCEFVRTLNGHKRGIACLQYRDRLVVSGSSDNTIRLWDIECGACLRVLEGHEELVRCIRFDNKRIVSGAYDGKIKVWDLQAALDPRAPASTLCLRTLVEHSGRVFRLQFDEFQIISSSHDDTILIWDFLNVPPSAQNETRSPSRTYTYISR
partner: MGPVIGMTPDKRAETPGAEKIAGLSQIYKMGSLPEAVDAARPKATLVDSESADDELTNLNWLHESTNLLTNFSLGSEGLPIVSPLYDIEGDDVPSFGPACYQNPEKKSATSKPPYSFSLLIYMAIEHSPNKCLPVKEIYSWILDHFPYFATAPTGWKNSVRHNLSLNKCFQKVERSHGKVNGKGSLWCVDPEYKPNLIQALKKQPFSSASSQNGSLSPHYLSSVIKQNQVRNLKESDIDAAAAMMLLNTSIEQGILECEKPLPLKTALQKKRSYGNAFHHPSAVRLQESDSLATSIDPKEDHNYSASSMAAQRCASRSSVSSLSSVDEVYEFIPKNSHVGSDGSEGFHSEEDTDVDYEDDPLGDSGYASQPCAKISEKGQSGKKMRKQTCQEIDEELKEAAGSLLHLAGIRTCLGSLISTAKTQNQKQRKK

Variants of: B1
Details: with foxn2_human FOXN2, P32314

Row | Variant | effect of a mutation on the interaction
1 | L474A | disrupting interaction
